The source of these data is PMC6877527, “Sugar-mediated regulation of a c-di-GMP phosphodiesterase in Vibrio cholerae” (Nature Communications, 2019).

For one experiment, the target named is T1, VC1710 (PdeS) (Vibrio cholerae, UniProt Q9KRD2).
T1 construct: gene VC_1710
Briefly: biochemical.

The target of a further experiment is GST-PdeS (V. cholerae). Nature of the experiment: MST; NanoTemper Monolith NT.115pico; GST-PdeS labeled with NT-647 at 4.875 nM; unlabeled EIIA^Glc titrated in 1:1 serial dilutions from 21.9 uM; 25 mM HEPES-NaOH pH 7.6, 100 mM NaCl, 5 mM beta-mercaptoethanol, 0.5 mg/ml BSA, 0.05% Tween 20; 15% LED power, 30% MST power, 22 C.

By Kd is commonly meant the free concentration of one partner at which half of the binding sites on the other are occupied at equilibrium, for simple one-to-one binding. Low values mean higher affinity, high ones lower affinity. Regarding `Nc1nc2c(ncn2[C@@H]2O[C@@H]3CO[P@](=O)(O)O[C@H]4[C@@H](O)[C@H](n5cnc6c(=O)[nH]c(N)nc65)O[C@@H]4CO[P@](=O)(O)O[C@H]3[C@H]2O)c(=O)[nH]1` [c-di-GMP], on VC1710 (PdeS), the dissociation constant (Kd) was around 8700 nM.
On to “hexahistidine-tagged EIIA^Glc, dephosphorylated form (natural protein)”, for which the dissociation constant (Kd) with GST-PdeS (V. cholerae) stood at 114 nM.
For the molecule “hexahistidine-tagged EIIA^Glc, phosphorylated form (natural protein)”, in the experiment with GST-PdeS (V. cholerae), the equilibrium dissociation constant (Kd) stood at 287 nM.
